Assay results published in patent EP0925358B1.

Target: human CXC Chemokine Receptor 3 (CXCR3) (human) (UniProt P49682)
Experiment: cell-based or functional assay

Chain of UniProt P49682 (P49682 whole entry, form in doubt): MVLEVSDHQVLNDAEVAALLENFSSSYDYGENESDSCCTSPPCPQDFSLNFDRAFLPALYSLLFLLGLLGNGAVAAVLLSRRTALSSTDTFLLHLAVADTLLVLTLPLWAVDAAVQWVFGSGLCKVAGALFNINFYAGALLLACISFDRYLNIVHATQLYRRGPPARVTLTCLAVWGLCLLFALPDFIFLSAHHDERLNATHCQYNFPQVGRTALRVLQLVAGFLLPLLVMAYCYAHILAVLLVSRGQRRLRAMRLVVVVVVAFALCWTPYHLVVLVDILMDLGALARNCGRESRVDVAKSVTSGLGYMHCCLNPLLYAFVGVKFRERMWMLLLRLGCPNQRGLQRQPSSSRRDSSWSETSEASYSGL

Substance | [Ca2+]i changes in IP-10/MigR transfectants [nM]
ENA78 (epithelial-derived neutrophil-activating peptide 78) (from UniProt P42830 37-114) (ligand) | > 100
GCP-2 (granulocyte chemotactic protein-2) (from UniProt P80162 38-114) (ligand) | > 100
GROα (from UniProt P09341 35-107) (ligand) | > 100
I309 (from UniProt P22362 24-96) (ligand) | > 100
IL-8 (from UniProt P10145 28-99) (ligand) | > 100
MCP-1 (monocyte chemotactic protein-1) (from UniProt P13500 24-99) (ligand) | > 100
MCP-2 (from UniProt P80075 24-99) (ligand) | > 100
MCP-3 (from UniProt P80098 24-99) (ligand) | > 100
MCP-4 (from UniProt Q99616 24-98) (ligand) | > 100
MIP-1α (macrophage inflammatory protein-1α) (from UniProt P10147 24-92) (ligand) | > 100
MIP-1β (from UniProt P13236 24-92) (ligand) | > 100
NAP-2 (neutrophil-activating protein-2) (from UniProt P02775 59-128) (ligand) | > 100
PF4 (platelet factor 4) (from UniProt P02776 32-101) (ligand) | > 100
RANTES (regulated on activation, normal T cell expressed and secreted) (from UniProt P13501 24-91) (ligand) | > 100
eotaxin (from UniProt P51671 24-97) (ligand) | > 100
lymphotactin (from UniProt P47992 22-114) (ligand) | > 100
